In the supplement of paper PMC9112550, “Optimization of the antimicrobial peptide Bac7 by deep mutational scanning” (BMC Biology, 2022):

Tested on: Escherichia coli TOP10
Assay: shrunken log2 fold change of peptide-encoding DNA abundance (4.5 h post-induction vs induction); higher = less antimicrobial activity (less host growth inhibition)
Details: time post-induction: 4.5 h; library: site-saturation at positions 5, 18, 19, 20
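Also: peptides expressed intracellularly from a pBAD plasmid library in pooled LB shake-flask culture, induced with 0.3% L-arabinose, DNA abundance read by NGS, three biological replicates, DESeq2 with apeglm shrinkage.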

| Sequence | shrunken log2 fold change |
| --- | --- |
| RRIRPRPPRLPRPRPRPLQAPRP | 0.496 |
| RRIRPRPPRLPRPRPRPLQSPRP | 0.0308 |
| RRIRPRPPRLPRPRPRPLRQPRP | 0.0954 |
| RRIRPRPPRLPRPRPRPLRWPRP | 0.588 |
| RRIRPRPPRLPRPRPRPLTVPRP | -0.126 |
| RRIRPRPPRLPRPRPRPLVFPRP | 0.257 |
| RRIRPRPPRLPRPRPRPLVHPRP | -0.00919 |
| RRIRPRPPRLPRPRPRPLVLPRP | 0.0114 |
| RRIRPRPPRLPRPRPRPLWCPRP | -0.158 |
| RRIRPRPPRLPRPRPRPLWEPRP | 0.0604 |
| RRIRPRPPRLPRPRPRPLYAPRP | 0.0267 |
| RRIRPRPPRLPRPRPRPLYHPRP | -0.514 |
| RRIRPRPPRLPRPRPRPLYIPRP | -0.227 |
| RRIRPRPPRLPRPRPRPLYNPRP | -0.623 |
| RRIRPRPPRLPRPRPRPMASPRP | 0.011 |
| RRIRPRPPRLPRPRPRPMEMPRP | -0.0174 |
| RRIRPRPPRLPRPRPRPMESPRP | 0.0152 |
| RRIRPRPPRLPRPRPRPMFHPRP | -0.289 |
| RRIRPRPPRLPRPRPRPMFKPRP | -0.0861 |
| RRIRPRPPRLPRPRPRPMFTPRP | -0.178 |
| RRIRPRPPRLPRPRPRPMGKPRP | -0.0536 |
| RRIRPRPPRLPRPRPRPMGLPRP | 0.0513 |
| RRIRPRPPRLPRPRPRPMGMPRP | 0.0285 |
| RRIRPRPPRLPRPRPRPMGVPRP | 0.0399 |
| RRIRPRPPRLPRPRPRPMIGPRP | 0.00964 |

| Sequence | shrunken log2 fold change |
| --- | --- |
| RRIRPRPPRLPRPRPRPMISPRP | -0.098 |
| RRIRPRPPRLPRPRPRPMKKPRP | -0.0723 |
| RRIRPRPPRLPRPRPRPMLTPRP | -0.333 |
| RRIRPRPPRLPRPRPRPMLWPRP | 0.172 |
| RRIRPRPPRLPRPRPRPMMSPRP | 0.081 |
| RRIRPRPPRLPRPRPRPMMYPRP | -0.198 |
| RRIRPRPPRLPRPRPRPMPAPRP | 0.0935 |
| RRIRPRPPRLPRPRPRPMPCPRP | 0.0941 |
| RRIRPRPPRLPRPRPRPMPKPRP | 0.409 |
| RRIRPRPPRLPRPRPRPMQHPRP | -0.0486 |
| RRIRPRPPRLPRPRPRPMQLPRP | 0.406 |
| RRIRPRPPRLPRPRPRPMRLPRP | 0.0536 |
| RRIRPRPPRLPRPRPRPMSDPRP | -0.195 |
| RRIRPRPPRLPRPRPRPMSIPRP | -0.211 |
| RRIRPRPPRLPRPRPRPMSWPRP | 0.245 |
| RRIRPRPPRLPRPRPRPMTFPRP | -0.0264 |
| RRIRPRPPRLPRPRPRPMVGPRP | 0.265 |
| RRIRPRPPRLPRPRPRPMVPPRP | 0.18 |
| RRIRPRPPRLPRPRPRPMWCPRP | -0.0757 |
| RRIRPRPPRLPRPRPRPNARPRP | 0.677 |
| RRIRPRPPRLPRPRPRPNCKPRP | -0.048 |
| RRIRPRPPRLPRPRPRPNCNPRP | -0.518 |
| RRIRPRPPRLPRPRPRPNCWPRP | 1.74 |
| RRIRPRPPRLPRPRPRPNDIPRP | -0.632 |
| RRIRPRPPRLPRPRPRPNDKPRP | -0.52 |

| Sequence | shrunken log2 fold change |
| --- | --- |
| RRIRPRPPRLPRPRPRPNDMPRP | -0.208 |
| RRIRPRPPRLPRPRPRPNEFPRP | -0.0949 |
| RRIRPRPPRLPRPRPRPNEIPRP | -0.139 |
| RRIRPRPPRLPRPRPRPNELPRP | -0.313 |
| RRIRPRPPRLPRPRPRPNEMPRP | 0.0125 |
| RRIRPRPPRLPRPRPRPNHYPRP | -0.576 |
| RRIRPRPPRLPRPRPRPNIEPRP | -0.294 |
| RRIRPRPPRLPRPRPRPNLMPRP | -0.0727 |
| RRIRPRPPRLPRPRPRPNLSPRP | -0.168 |
| RRIRPRPPRLPRPRPRPNLYPRP | -0.276 |
| RRIRPRPPRLPRPRPRPNMAPRP | 0.478 |
| RRIRPRPPRLPRPRPRPNPGPRP | 0.0588 |
| RRIRPRPPRLPRPRPRPNPLPRP | 0.149 |
| RRIRPRPPRLPRPRPRPNQFPRP | -0.204 |
| RRIRPRPPRLPRPRPRPNREPRP | 0.026 |
| RRIRPRPPRLPRPRPRPNSTPRP | -0.23 |
| RRIRPRPPRLPRPRPRPNSVPRP | -0.174 |
| RRIRPRPPRLPRPRPRPNTQPRP | -0.159 |
| RRIRPRPPRLPRPRPRPNVHPRP | -0.44 |
| RRIRPRPPRLPRPRPRPNVQPRP | 0.0803 |
| RRIRPRPPRLPRPRPRPNWMPRP | 0.0917 |
| RRIRPRPPRLPRPRPRPNWTPRP | 0.218 |
| RRIRPRPPRLPRPRPRPPCEPRP | 0.522 |
| RRIRPRPPRLPRPRPRPPCTPRP | 0.00476 |
| RRIRPRPPRLPRPRPRPPDRPRP | 0.583 |

| Sequence | shrunken log2 fold change |
| --- | --- |
| RRIRPRPPRLPRPRPRPPEKPRP | 0.544 |
| RRIRPRPPRLPRPRPRPPFNPRP | -0.126 |
| RRIRPRPPRLPRPRPRPPGVPRP | 0.517 |
| RRIRPRPPRLPRPRPRPPIMPRP | -0.0982 |
| RRIRPRPPRLPRPRPRPPKDPRP | 0.225 |
| RRIRPRPPRLPRPRPRPPLDPRP | 0.517 |
| RRIRPRPPRLPRPRPRPPLYPRP | 0.217 |
| RRIRPRPPRLPRPRPRPPMNPRP | -0.036 |
| RRIRPRPPRLPRPRPRPPNPPRP | 0.453 |
| RRIRPRPPRLPRPRPRPPNVPRP | -0.0451 |
| RRIRPRPPRLPRPRPRPPNWPRP | 0.534 |
| RRIRPRPPRLPRPRPRPPPVPRP | 0.744 |
| RRIRPRPPRLPRPRPRPPQRPRP | 0.43 |
| RRIRPRPPRLPRPRPRPPRNPRP | 0.315 |
| RRIRPRPPRLPRPRPRPPRWPRP | 0.495 |
| RRIRPRPPRLPRPRPRPPSCPRP | -0.058 |
| RRIRPRPPRLPRPRPRPPSKPRP | 0.105 |
| RRIRPRPPRLPRPRPRPPVIPRP | 0.332 |
| RRIRPRPPRLPRPRPRPPWTPRP | 0.267 |
| RRIRPRPPRLPRPRPRPPYIPRP | -0.251 |
| RRIRPRPPRLPRPRPRPPYPPRP | -0.0364 |
| RRIRPRPPRLPRPRPRPPYRPRP | 0.103 |
| RRIRPRPPRLPRPRPRPPYTPRP | -0.232 |
| RRIRPRPPRLPRPRPRPQAKPRP | 0.277 |
| RRIRPRPPRLPRPRPRPQAVPRP | 0.0933 |

| Sequence | shrunken log2 fold change |
| --- | --- |
| RRIRPRPPRLPRPRPRPQDDPRP | -0.367 |
| RRIRPRPPRLPRPRPRPQDGPRP | 0.0623 |
| RRIRPRPPRLPRPRPRPQFAPRP | 0.218 |
| RRIRPRPPRLPRPRPRPQFRPRP | -0.0113 |
| RRIRPRPPRLPRPRPRPQFSPRP | -0.184 |
| RRIRPRPPRLPRPRPRPQGTPRP | 0.306 |
| RRIRPRPPRLPRPRPRPQHAPRP | 0.041 |
| RRIRPRPPRLPRPRPRPQLIPRP | -0.108 |
| RRIRPRPPRLPRPRPRPQLSPRP | -0.485 |
| RRIRPRPPRLPRPRPRPQMSPRP | 0.0674 |
| RRIRPRPPRLPRPRPRPQNIPRP | -0.456 |
| RRIRPRPPRLPRPRPRPQNTPRP | -0.407 |
| RRIRPRPPRLPRPRPRPQQGPRP | 0.14 |
| RRIRPRPPRLPRPRPRPQQRPRP | 0.0201 |
| RRIRPRPPRLPRPRPRPQRGPRP | 0.251 |
| RRIRPRPPRLPRPRPRPQSMPRP | -0.609 |
| RRIRPRPPRLPRPRPRPQSPPRP | 0.0713 |
| RRIRPRPPRLPRPRPRPQTHPRP | -0.272 |
| RRIRPRPPRLPRPRPRPQVAPRP | -0.0363 |
| RRIRPRPPRLPRPRPRPQVCPRP | 0.129 |
| RRIRPRPPRLPRPRPRPQVTPRP | -0.0231 |
| RRIRPRPPRLPRPRPRPQYVPRP | -0.184 |
| RRIRPRPPRLPRPRPRPQYWPRP | -0.0415 |
| RRIRPRPPRLPRPRPRPRCGPRP | 0.282 |
| RRIRPRPPRLPRPRPRPRCIPRP | -0.2 |

| Sequence | shrunken log2 fold change |
| --- | --- |
| RRIRPRPPRLPRPRPRPRCSPRP | 0.00477 |
| RRIRPRPPRLPRPRPRPREIPRP | 0.44 |
| RRIRPRPPRLPRPRPRPRFIPRP | -0.184 |
| RRIRPRPPRLPRPRPRPRGTPRP | 0.0776 |
| RRIRPRPPRLPRPRPRPRHKPRP | -0.0467 |
| RRIRPRPPRLPRPRPRPRHQPRP | 0.31 |
| RRIRPRPPRLPRPRPRPRHRPRP | 0.177 |
| RRIRPRPPRLPRPRPRPRILPRP | 0.0605 |
| RRIRPRPPRLPRPRPRPRIMPRP | -0.0771 |
| RRIRPRPPRLPRPRPRPRKHPRP | 0.0952 |
| RRIRPRPPRLPRPRPRPRMQPRP | 1.48 |
| RRIRPRPPRLPRPRPRPRNQPRP | 0.00569 |
| RRIRPRPPRLPRPRPRPRPCPRP | 0.188 |
| RRIRPRPPRLPRPRPRPRPGPRP | 0.555 |
| RRIRPRPPRLPRPRPRPRPTPRP | 0.869 |
| RRIRPRPPRLPRPRPRPRQFPRP | 0.556 |
| RRIRPRPPRLPRPRPRPRQPPRP | 0.113 |
| RRIRPRPPRLPRPRPRPRRAPRP | 0.525 |
| RRIRPRPPRLPRPRPRPRSIPRP | -0.149 |
| RRIRPRPPRLPRPRPRPRSVPRP | 0.0746 |
| RRIRPRPPRLPRPRPRPRWTPRP | 0.399 |
| RRIRPRPPRLPRPRPRPSAKPRP | 0.528 |
| RRIRPRPPRLPRPRPRPSCCPRP | -0.0575 |
| RRIRPRPPRLPRPRPRPSCKPRP | -0.189 |
| RRIRPRPPRLPRPRPRPSEVPRP | -0.079 |
